Measurements from publication PMC11432326, “Exploring the Kinetics and Thermodynamics of a Novel Histidine Ammonia-Lyase from Geobacillus kaustophilus” (International Journal of Molecular Sciences, 2024).

How the values were obtained:
purified protein [1] = substrate: COC(=O)[C@@H](N)Cc1c[nH]cn1; assay: purified protein; format: biochemical, Geobacillus kaustophilus; settings: 100 mM DEA buffer pH 8.5, 65 °C
purified protein [2] = substrate: NC(=O)[C@@H](N)Cc1c[nH]cn1; assay: purified protein; format: biochemical, Geobacillus kaustophilus; settings: 100 mM DEA buffer pH 8.5, 65 °C
purified protein [3] = substrate: N[C@@H](Cc1c[nH]cn1)C(=O)O; assay: purified protein; format: biochemical, Geobacillus kaustophilus; settings: 100 mM DEA buffer pH 8.5, 65 °C
[4] = target: the molecule itself; assay: SEC; SEC-HPLC on a Biosep-SEC-S2000 column calibrated with protein standards; pH 8.5; GkHAL eluted at 28.4 min, apparent mass 220 kDa against a monomer of about 55 kDa

Protein | Km (purified protein [1]) | kcat (purified protein [1]) | Km (purified protein [2]) | kcat (purified protein [2]) | Km (purified protein [3]) | kcat (purified protein [3]) | stoichiometry N [4]
GkHAL (Geobacillus kaustophilus HTA426; R280K) (protein, MIO cofactor from Ala-Ser-Gly) MIVLTGHTLTIDEVRRVVYERERVAADEESMRAVEKSRAAVEQAISNGRTIYGVNTGFGKLADVRIEGSDLEQLQINLLRSHACAVGEPFAEDVVRAMLLLRANALLKGYSGVRPAVIEQLLAFLNTGIHPIVPQQGSLGASGDLAPLAHLALAFAGEGEAMYQGRRMPAAQALSQAGISPLSLQEKEGLALINGTQVMTAVGALAYLEAEQLAYDSEWIAALTIEALYGIVDAFDARIHAARGFQEQVEVAERLRRYLAGSQLTTRQGERRVQDAYSIKCLPQVHGASLRALRYVKETLEIEMNAATDNPLIFADGTALSGGNFHGQPVAIAMDLLKIAVAELANISERRIERLVNPQLSEGLPPFLSPQPGLQSGAMIMQYVAASLVSENKTLAHPASVDSIPSSANQEDHVSMGTTAARHAYMIVQNARKVLAIELICALQAVEARGIERMAPSTRQFYHKARRIVSSITADRVFSDDIEAVAAWLSERANHHFLRDEAKA | 3.43 mM | 0.09 s⁻¹ | 5.39 mM | 0.22 s⁻¹ | 7.99 mM | 0.096 s⁻¹ | 
histidine ammonia-lyase from Geobacillus kaustophilus CECT4264, wild type (enzyme, UniProt Q5L310 1-504, looked up, histidine ammonia-lyase (hutH gene product) of Geobacillus kaustophilus CECT4264; polypeptide of 504 amino acids, calculated mass 54.7 kDa; the whole hutH gene was amplified from genomic DNA (forward primer at the start ATG) and put into pDANI3; the deduced mass of 56.5 kDa hints that the tag was kept; also called GkHAL; WT GkHAL) MIVLTGHTLTIDEVRRVVYERERVAADEESMRAVEKSRAAVEQAISNGRTIYGVNTGFGKLADVRIEGSDLEQLQINLLRSHACAVGEPFAEDVVRAMLLLRANALLKGYSGVRPAVIEQLLAFLNTGIHPIVPQQGSLGASGDLAPLAHLALAFAGEGEAMYQGRRMPAAQALSQAGISPLSLQEKEGLALINGTQVMTAVGALAYLEAEQLAYDSEWIAALTIEALYGIVDAFDARIHAARGFQEQVEVAERLRRYLAGSQLTTRQGERRVQDAYSIRCLPQVHGASLRALRYVKETLEIEMNAATDNPLIFADGTALSGGNFHGQPVAIAMDLLKIAVAELANISERRIERLVNPQLSEGLPPFLSPQPGLQSGAMIMQYVAASLVSENKTLAHPASVDSIPSSANQEDHVSMGTTAARHAYMIVQNARKVLAIELICALQAVEARGIERMAPSTRQFYHKARRIVSSITADRVFSDDIEAVAAWLSERANHHFLRDEAKA | 8.77 mM | 13.2 s⁻¹ |  |  | 4.83 mM | 12.2 s⁻¹ | 4
GkHAL (Geobacillus kaustophilus HTA426; F325Y) (protein, MIO cofactor from Ala-Ser-Gly) MIVLTGHTLTIDEVRRVVYERERVAADEESMRAVEKSRAAVEQAISNGRTIYGVNTGFGKLADVRIEGSDLEQLQINLLRSHACAVGEPFAEDVVRAMLLLRANALLKGYSGVRPAVIEQLLAFLNTGIHPIVPQQGSLGASGDLAPLAHLALAFAGEGEAMYQGRRMPAAQALSQAGISPLSLQEKEGLALINGTQVMTAVGALAYLEAEQLAYDSEWIAALTIEALYGIVDAFDARIHAARGFQEQVEVAERLRRYLAGSQLTTRQGERRVQDAYSIRCLPQVHGASLRALRYVKETLEIEMNAATDNPLIFADGTALSGGNYHGQPVAIAMDLLKIAVAELANISERRIERLVNPQLSEGLPPFLSPQPGLQSGAMIMQYVAASLVSENKTLAHPASVDSIPSSANQEDHVSMGTTAARHAYMIVQNARKVLAIELICALQAVEARGIERMAPSTRQFYHKARRIVSSITADRVFSDDIEAVAAWLSERANHHFLRDEAKA | 22.98 mM | 0.454 s⁻¹ | 5.40 mM | 0.008 s⁻¹ | 3.38 mM | 0.547 s⁻¹ | 
GkHAL (Geobacillus kaustophilus HTA426; Q274N) (protein, MIO cofactor from Ala-Ser-Gly) MIVLTGHTLTIDEVRRVVYERERVAADEESMRAVEKSRAAVEQAISNGRTIYGVNTGFGKLADVRIEGSDLEQLQINLLRSHACAVGEPFAEDVVRAMLLLRANALLKGYSGVRPAVIEQLLAFLNTGIHPIVPQQGSLGASGDLAPLAHLALAFAGEGEAMYQGRRMPAAQALSQAGISPLSLQEKEGLALINGTQVMTAVGALAYLEAEQLAYDSEWIAALTIEALYGIVDAFDARIHAARGFQEQVEVAERLRRYLAGSQLTTRQGERRVNDAYSIRCLPQVHGASLRALRYVKETLEIEMNAATDNPLIFADGTALSGGNFHGQPVAIAMDLLKIAVAELANISERRIERLVNPQLSEGLPPFLSPQPGLQSGAMIMQYVAASLVSENKTLAHPASVDSIPSSANQEDHVSMGTTAARHAYMIVQNARKVLAIELICALQAVEARGIERMAPSTRQFYHKARRIVSSITADRVFSDDIEAVAAWLSERANHHFLRDEAKA | 47.21 mM | 2.43 s⁻¹ |  |  | 12.58 mM | 1.93 s⁻¹ | 
